One may read the Kd as a measure of binding affinity in units of concentration.

T1: VEGF-165 (VEGF-A) (Homo sapiens)
T1 chain: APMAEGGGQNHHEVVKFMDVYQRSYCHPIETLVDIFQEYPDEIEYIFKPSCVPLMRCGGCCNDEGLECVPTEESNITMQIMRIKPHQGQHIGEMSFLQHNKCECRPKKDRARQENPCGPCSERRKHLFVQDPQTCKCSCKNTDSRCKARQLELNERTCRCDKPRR

B1: AMSB108.0 (ssRNA)
RNA: CGCAUAGAUAAGCCAACAAACGUACAUUCUCUGUUAGUAUUUUCUGCGUGCCAGUGAGUCGGAUCUCCACAGUUCUCUGUG
modifications: 2'-F all nucleotides
B2: AMSB107 (ssRNA)
RNA: UGCAUGCAUUUUACCAGUGAGUCGGAUCUCCGCAUAGAUAAGCCAACAAACGUACAUUCUCUGUUAGUAUUUUCUGCG
modifications: 2'-F all nucleotides
B3: AMSB107.12 (ssRNA)
RNA: B2 RNA with U1C, G2U, C3G, A4U, U5A, G6C, C7A, A8G
modifications: 2'-F all nucleotides
B4: AMSB107.21 (ssRNA)
RNA: B2 RNA
modifications: 2'-F; 2'-OMe in stem nucleotides (5' UGCAUGCA, internal CGCA, 3' UGCG)
B5: AMSB107.18 (ssRNA)
RNA: B2 RNA
modifications: 2'-F; LNA at selected positions of the VEGF consensus as printed
B6: AMSB107.20 (ssRNA)
RNA: B2 RNA
modifications: 2'-F; LNA in stem nucleotides as printed
B7: AMSB107.19 (ssRNA)
RNA: B2 RNA
modifications: 2'-F; LNA at selected positions of the VEGF consensus as printed
B8: AMSB107.8 (ssRNA)
RNA: UUUUGCAUGCAUUUUACCAGUGAGUCGGAUCUCCGCAUAGAUAAGCCAACAAACGUACAUUCUCUGUUAGUAUUUUCUGCG
modifications: 2'-F all nucleotides
B9: AMSB107.6 (ssRNA)
RNA: UGCAUGCAACCAGUGAGUCGGAUCUCCGCAUAGAUAAGCCAACAAACGUACAUUCUCUGUUAGUAUUUUCUGCG
modifications: 2'-F all nucleotides
B10: AMSB107.1 (ssRNA)
RNA: UGCCAGUGAGUCGGAUCUCCGCAUAGAUAAGCCAACAAACGUACAUUCUCUGUUAGUAUUUUCUGCG
modifications: 2'-F all nucleotides
B11: AMSB107.11 (ssRNA)
RNA: UGCAUGCAUUUUCCAGUGAGUCGGAUCUCCGCAUAGAUAAGCCAACAAACGUACAUUCUCUGUUAGUAUUUUCUGCG
modifications: 2'-F all nucleotides
B12: AMSB107.14 (ssRNA)
RNA: UGCACUGCAUUUUACCAGUGAGUCGGAUCUCCGCAUAGAUAAGCCAACAAACGUACAUUCUCUGUUAGUAUUUUCUGCG
modifications: 2'-F all nucleotides
B13: AMSB107.2 (ssRNA)
RNA: UGCCAGUGAGUCGGAUCUCCACAGUAGAUAAGCCAACAAACGUACAUUCUCUGUUAGUAUUUUCCUGUG
modifications: 2'-F all nucleotides
B14: AMSB107.16 (ssRNA)
RNA: UGCAUGCAUUUUACCAGUGAGUCGGAUCUCUUUCGCAUAGAUAAGCCAACAAACGUACAUUCUCUGUUAGUAUUUUCUGCG
modifications: 2'-F all nucleotides
B15: AMSB107.4 (ssRNA)
RNA: GCAUGCUUUUACCAGUGAGUCGGAUCUCCGCAUAGAUAAGCCAACAAACGUACAUUCUCUGUUAGUAUUUUCUGCG
modifications: 2'-F all nucleotides
B16: AMSB107.9 (ssRNA)
RNA: B15 RNA with G1U, C2G, A3C, U4A, G5U, C6G, U7C, U8A
modifications: 2'-F all nucleotides
B17: AMSB107.7 (ssRNA)
RNA: UGCAUGCACAGUGAGUCGGAUCUCCGCAUAGAUAAGCCAACAAACGUACAUUCUCUGUUAGUAUUUUCUGCG
modifications: 2'-F all nucleotides
B18: AMSB107.5 (ssRNA)
RNA: AUGCAUGCAUUUUUACCAGUGAGUCGGAUCUCCGCAUAGAUAAGCCAACAAACGUACAUUCUCUGUUAGUAUUUUCUGCG
modifications: 2'-F all nucleotides
B19: AMSB107.10 (ssRNA)
RNA: B18 RNA with A1U, U2G, G3C, C4A, A5U, U6G, G7C, C8A, A9U
modifications: 2'-F all nucleotides
B20: AMSB107.15 (ssRNA)
RNA: B18 RNA with A1U, U2G, G3C, C4A, A5U, U6C, G7U, C8G, A9C, U10A
modifications: 2'-F all nucleotides
B21: AMSB107.17 (ssRNA)
RNA: B18 RNA with A1G, U2C, G3U, C4G, A5U, U6A, G7C, C8A, A9G, U10C
modifications: 2'-F all nucleotides
B22: AMSB107.13 (ssRNA)
RNA: B18 RNA with A1C, U2C, C4G, A5U, U6A, G7C, A9G, U10G
modifications: 2'-F all nucleotides
B23: AMSB107.0 (ssRNA)
RNA: ACCCUUGCUUGCGUAGCAUUUUACCAGUGAGUCGGAUCUCCGCAUAGAUAAGCCAACAAACGUACAUUCUCUGUUAGUAUUUUCUGCG
modifications: 2'-F all nucleotides
B24: AMS0433.19 (ssRNA)
RNA: CUGUACAGUUUUACCAGUGAGUCGGAUCUCCGCAUAUCUGCG
modifications: 2'-F all nucleotides
B25: AMS0433.15 (ssRNA)
RNA: ACCCUUGCUUGCGUAGCAUUUUACCAGUGAGUCGGAUCUCUGCAUGCA
modifications: 2'-F all nucleotides
B26: AMS0433.17 (ssRNA)
RNA: UGCACUGCAUUUUACCAGUGAGUCGGAUCUCCGCAUAUCUGCG
modifications: 2'-F all nucleotides
B27: AMS0433.13 (ssRNA)
RNA: UUUUGUGCUUGCGUAGCAACCCUCCAGUGAGUCGGAUCUCCGCAUAUCUGCG
modifications: 2'-F all nucleotides
B28: AMS0433.1 (ssRNA)
RNA: ACCCUUGCUUGCGUAGCAUUUUACCAGUGAGUCGGAUCUCCGCAUAUCUGCG
modifications: 2'-F all nucleotides
B29: AMS0433.8 (ssRNA)
RNA: CGUAGCAUUUUGCCAGUGAGUCGGAUCUCCGCAUAUCUGCG
modifications: 2'-F all nucleotides
B30: AMS0433.20 (ssRNA)
RNA: UUUUGCAUGCAUUUUACCAGUGAGUCGGAUCUCCGCAUAUCUGCG
modifications: 2'-F all nucleotides
B31: AMS0433.16 (ssRNA)
RNA: UUUUACCAGUGAGUCGGAUCUCUGCAUGCA
modifications: 2'-F all nucleotides
B32: AMS0433.7 (ssRNA)
RNA: CACAGAGAACUGUGUGCCAGUGAGUCGGAUCUCCGCAUAUCUGCG
modifications: 2'-F all nucleotides
B33: AMS0433.18 (ssRNA)
RNA: UGCAUCUGCAUUUUACCAGUGAGUCGGAUCUCCGCAUAUCUGCG
modifications: 2'-F all nucleotides
B34: AMS0433.11 (ssRNA)
RNA: CACAGAGAACUGUGCCUAGCAUUUUGCCAGUGAGUCGGAUCUCCGCAUAUCUGCG
modifications: 2'-F all nucleotides
B35: AMS0433.6 (ssRNA)
RNA: CCCCAUCUGCGAAGCAGUCAGCCAGUGAGUCGGAUCUCCGCAUAUCUGCG
modifications: 2'-F all nucleotides
B36: AMS0433.5 (ssRNA)
RNA: CACCAUGCUUGCGUAGCAUCAUCCAGUGAGUCGGAUCUCCGCAUAUCUGCG
modifications: 2'-F all nucleotides
B37: AMS0433.2 (ssRNA)
RNA: UGCCAGUGAGUCGGAUCUCCGCAUAUCUGCGCGCAUAUCUGCG
modifications: 2'-F all nucleotides
B38: AMS0433.10 (ssRNA)
RNA: UGCCAGUGAGUCGGAUCUCCUGUGAGAACACAG
modifications: 2'-F all nucleotides

Substitutions are numbered along the chain they refer to.

For one data set, the target named is Angiopoietin-2 (Ang2) (Homo sapiens, UniProt O15123 O15123:19-496). In words: flow. The conditions noted are these: tags: His tag; R&D Systems 623-AN.
Sequence of Angiopoietin-2 (Ang2) (O15123 19-496, one chain of several): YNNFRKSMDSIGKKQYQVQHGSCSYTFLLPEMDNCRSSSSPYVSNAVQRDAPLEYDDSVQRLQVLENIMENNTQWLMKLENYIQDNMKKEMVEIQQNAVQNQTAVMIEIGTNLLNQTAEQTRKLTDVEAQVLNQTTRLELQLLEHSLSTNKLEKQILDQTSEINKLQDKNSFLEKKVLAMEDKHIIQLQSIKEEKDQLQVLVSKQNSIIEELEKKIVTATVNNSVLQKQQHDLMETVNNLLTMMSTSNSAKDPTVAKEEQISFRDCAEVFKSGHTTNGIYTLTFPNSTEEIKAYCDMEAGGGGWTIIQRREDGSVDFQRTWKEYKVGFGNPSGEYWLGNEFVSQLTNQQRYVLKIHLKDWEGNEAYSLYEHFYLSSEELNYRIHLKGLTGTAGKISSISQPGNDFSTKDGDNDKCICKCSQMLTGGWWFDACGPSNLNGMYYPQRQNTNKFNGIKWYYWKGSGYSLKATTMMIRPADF
Regarding B1, the Kd came to 0.52 nM.
Still for that read-out and setting: in the case of B2 it was 0.087 nM; in that of B3, 0.227 nM.
Same read-out and setting: for B4 the value was 0.083 nM; for B5, 0.079 nM.
On the same count and under the same terms, for B6 the value was 0.253 nM.
The molecule B7 came in with a dissociation constant (Kd) of 0.083 nM.
On the same count and under the same terms, for B8 the value was 0.095 nM; for B9, 0.074 nM; for B10, 0.885 nM.
For the molecule B11, the affinity, expressed as Kd, was 0.095 nM.
In the case of B12, the Kd is 0.928 nM.
Still for that read-out and setting: for B13 the value was 0.82 nM.
On the same count and under the same terms, for B14 the value was 0.08 nM.
On the same count and under the same terms, in the case of B15 it was 0.237 nM; in that of B16, 0.15 nM; in that of B17, 0.085 nM.
With B18, the Kd was 0.096 nM.
Same read-out and setting: in the case of B19 it was 0.089 nM.
Turning to B20, the Kd was determined as 0.778 nM.
B21 returned an equilibrium dissociation constant (Kd) of 0.086 nM.
The molecule B22 registered an equilibrium dissociation constant (Kd) of 0.089 nM.
For B23, the Kd is 0.222 nM.

Another data set deals with T1, VEGF-165 (VEGF-A). In words: flow. The conditions noted are these: tags: recombinant; chain copies: 2.
With B1, the Kd is 15.7 nM.
Still for that read-out and setting: for B2 the value was 0.054 nM.
The same measure, in the same setting: in the case of B3 it was 0.606 nM; in that of B4, 0.052 nM.
On the same count and under the same terms, for B5 the value was 0.608 nM; for B6, 0.234 nM; for B8, 0.048 nM.
Turning to B9, the Kd came out at 2.34 nM.
The same measure, in the same setting: for B10 the value was 13.9 nM.
In the case of B11, the equilibrium dissociation constant (Kd) was 0.057 nM.
On the same count and under the same terms, in the case of B12 it was 0.643 nM; in that of B13, 12.9 nM; in that of B15, 0.225 nM.
On the same count and under the same terms, in the case of B16 it was 0.151 nM.
On the same count and under the same terms, for B18 the value was 0.052 nM.
As to B19, the equilibrium dissociation constant (Kd) is 0.051 nM.
Still for that read-out and setting: in the case of B20 it was 0.765 nM; in that of B21, 0.198 nM.
On the same count and under the same terms, for B22 the value was 0.05 nM; for B23, 1.29 nM.

For another data set, the target named is T1, VEGF-165 (VEGF-A). In words: flow; PBSMCT, 37 C. The settings on record: tags: recombinant; chain copies: 2; label: biotin.
In the case of B24, the dissociation constant (Kd) worked out at 0.097 nM.
The same measure, in the same setting: for B25 the value was 7.34 nM; for B26, 0.359 nM.
Same read-out and setting: in the case of B27 it was 8.3 nM; in that of B28, 0.666 nM; in that of B29, 8.2 nM.
The same measure, in the same setting: for B30 the value was 0.039 nM; for B31, 6.65 nM; for B32, 9.76 nM.
As to B33, the dissociation constant (Kd) is 3.81 nM.
Same read-out and setting: for B34 the value was 16.4 nM; for B35, 0.674 nM.
For B36, the Kd stood at 0.739 nM.
Still for that read-out and setting: for B37 the value was 8.42 nM.
The same measure, in the same setting: for B38 the value was 8.47 nM.

For a further data set, the target named is VEGF-121 (VEGF-A) (Homo sapiens, UniProt P15692 SEQ:1-121). In words: flow; PBSMCT, 37 C. The settings on record: tags: recombinant; chain copies: 2; label: biotin.
As for B24, the Kd came out at 0.162 nM.
For the molecule B25, the dissociation constant Kd was determined as 9 nM.
On the same count and under the same terms, for B26 the value was 0.475 nM; for B27, 9.47 nM; for B28, 1.12 nM.
On the same count and under the same terms, for B29 the value was 11 nM; for B30, 0.045 nM; for B31, 10.4 nM.
Still for that read-out and setting: in the case of B32 it was 13.8 nM.
Turning to B33, the Kd came out at 5.73 nM.
Turning to B34, the Kd was 23.2 nM.
As to B35, the Kd came out at 0.898 nM.
Consider B36, for which the dissociation constant (Kd) came to 1.19 nM.
Same read-out and setting: in the case of B37 it was 11.4 nM; in that of B38, 11.4 nM.

Source of the values: patent US20230095004 (Aptitude Medical Systems, Inc., published 2023).
